Values quoted from earlier work, collected in PMC7419686.

Target: MDMX (Homo sapiens) (UniProt O15151)
Sequence (O15151 whole entry): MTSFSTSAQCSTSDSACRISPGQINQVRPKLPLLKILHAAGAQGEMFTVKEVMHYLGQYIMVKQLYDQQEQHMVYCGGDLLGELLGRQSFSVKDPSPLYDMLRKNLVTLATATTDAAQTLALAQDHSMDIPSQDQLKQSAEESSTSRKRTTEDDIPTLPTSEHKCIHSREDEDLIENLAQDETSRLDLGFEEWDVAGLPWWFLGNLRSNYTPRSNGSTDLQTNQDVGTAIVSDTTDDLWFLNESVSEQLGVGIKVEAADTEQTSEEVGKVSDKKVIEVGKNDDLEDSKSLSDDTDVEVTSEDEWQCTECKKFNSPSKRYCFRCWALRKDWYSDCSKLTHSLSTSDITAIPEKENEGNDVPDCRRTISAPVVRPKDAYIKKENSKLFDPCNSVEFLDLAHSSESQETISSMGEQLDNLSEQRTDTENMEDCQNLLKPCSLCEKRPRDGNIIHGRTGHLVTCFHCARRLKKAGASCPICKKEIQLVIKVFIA

Kd: 2.3 nM
Substance: SAH-p53-8 (from UniProt P04637)
